How the values were obtained:
[1] = system: ubiquitylated HA-PALB2 (1-103) (in vitro ubiquitylated by CRL3-KEAP1)
[2] = system: T1, HA-PALB2 (1-103)
T1 sequence: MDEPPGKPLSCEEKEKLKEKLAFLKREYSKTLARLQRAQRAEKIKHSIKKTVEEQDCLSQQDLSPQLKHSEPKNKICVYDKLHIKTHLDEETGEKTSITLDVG

[3] = biological target: T2, BRCA2 (Homo sapiens breast cancer 2) (human, UniProt P51587 1-3418); assay: PALB2 immunoprecipitation from 293T extracts synchronized in S or G1, immunoblot
T2 construct: Endogenous protein in 293T extracts, detected by immunoblot

In the case of “glutathione S-transferase (GST)-USP11 (Sus scrofa (pig) USP11)”, the “deubiquitylation reaction, immunoblot” value [1] is reported as “recombinant USP11 can directly de-ubiquitylate PALB2 (1-103)”.

With “recombinant CRL3-KEAP1 (neddylated CUL3/RBX1 with GST-mKEAP1)” the “in vitro ubiquylation of HA-PALB2 (1-103), immunoblot and mass spectrometry” value [2] was “ubiquitylation of the N-terminus of PALB2 (residues 1-103; fused to a haemagglutinin (HA) epitope tag) could be readily reconstituted by recombinant CRL3-KEAP1”.

B1: PALB2 (partner and localizer of BRCA2) (other)
chain: MDEPPGKPLSCEEKEKLKEKLAFLKREYSKTLARLQRAQRAEKIKHSIKKTVEEQDCLSQQDLSPQLKHSEPKNKICVYDKLHIKTHLDEETGEKTSITLDVGPESFNPGDGPGGLPIQRTDDTQEHFPHRVSDPSGEQKQKLPSRRKKQQKRTFISQERDCVFGTDSLRLSGKRLKEQEEISSKNPARSPVTEIRTHLLSLKSELPDSPEPVTEINEDSVLIPPTAQPEKGVDTFLRRPNFTRATTVPLQTLSDSGSSQHLEHIPPKGSSELTTHDLKNIRFTSPVSLEAQGKKMTVSTDNLLVNKAISKSGQLPTSSNLEANISCSLNELTYNNLPANENQNLKEQNQTEKSLKSPSDTLDGRNENLQESEILSQPKSLSLEATSPLSAEKHSCTVPEGLLFPAEYYVRTTRSMSNCQRKVAVEAVIQSHLDVKKKGFKNKNKDASKNLNLSNEETDQSEIRMSGTCTGQPSSRTSQKLLSLTKVSSPAGPTEDNDLSRKAVAQAPGRRYTGKRKSACTPASDHCEPLLPTSSLSIVNRSKEEVTSHKYQHEKLFIQVKGKKSRHQKEDSLSWSNSAYLSLDDDAFTAPFHRDGMLSLKQLLSFLSITDFQLPDEDFGPLKLEKVKSCSEKPVEPFESKMFGERHLKEGSCIFPEELSPKRMDTEMEDLEEDLIVLPGKSHPKRPNSQSQHTKTGLSSSILLYTPLNTVAPDDNDRPTTDMCSPAFPILGTTPAFGPQGSYEKASTEVAGRTCCTPQLAHLKDSVCLASDTKQFDSSGSPAKPHTTLQVSGRQGQPTCDCDSVPPGTPPPIESFTFKENQLCRNTCQELHKHSVEQTETAELPASDSINPGNLQLVSELKNPSGSCSVDVSAMFWERAGCKEPCIITACEDVVSLWKALDAWQWEKLYTWHFAEVPVLQIVPVPDVYNLVCVALGNLEIREIRALFCSSDDESEKQVLLKSGNIKAVLGLTKRRLVSSSGTLSDQQVEVMTFAEDGGGKENQFLMPPEETILTFAEVQGMQEALLGTTIMNNIVIWNLKTGQLLKKMHIDDSYQASVCHKAYSEMGLLFIVLSHPCAKESESLRSPVFQLIVINPKTTLSVGVMLYCLPPGQAGRFLEGDVKDHCAAAILTSGTIAIWDLLLGQCTALLPPVSDQHWSFVKWSGTDSHLLAGQKDGNIFVYHYS
notes: Endogenous protein in extracts of human 293T cells, immunoprecipitated with rabbit anti-PALB2 or detected by immunoblot; NCBI NP_078951.2
B1: binds [3].
